The values that follow come from article doi:10.1101/2020.10.05.326595 (bioRxiv, 2020).

Positions count from the first letter of the chain named. Numbers in names are those of the source.

The data set “crystal structure” deals with the molecule itself. In words: crystal structure.
The data set “SEC-SAXS” deals with the molecule itself. Put plainly: SEC-SAXS.

B1: ZTL G46A:G80R (LOV domain construct, residues 29-165) (domain or fragment, UniProt Q94BT6 29-165, looked up)
chain: GGPIPYPVGNLLHTAPCAFVVTDAVEPDQPIIYVNTVFEMVTGYRAEEVLGRNCRFLQCRGPFAKRRHPLVDSMVVSEIRKCIDEGIEFQGELLNFRKDGSPLMNRLRLTPIYGDDDTITHIIGIQFFIETDIDLGP
Regarding B1, in “crystal structure”, the binding result is listed as “binds”.

B2: ZTL G46S:G80R (LOV domain construct, residues 29-165) (domain or fragment, UniProt Q94BT6 29-165, looked up)
chain: B1 chain with A18S
As for B2, the “stoichiometry N” value in “SEC-SAXS” amounted to 2.
